Positions count from the first letter of the chain named.
Assays:
[1] = test system: ChxR effector domain (ChxREff) (Chlamydia trachomatis); assay: EMSA; conditions: EMSA as in ref 17 (buffer, salt, pH, temperature not given); 1 nM IR800-DNA with 50 nM-10 uM ChxREff, triplicate; 44 uM full-length ChxR (wild type, H186A) in …
[2] = target: the molecule itself; assay: SAXS; full-length ChxR in solution at 1.25, 2.5 and 5.0 mg/ml, 20°C, 5% (v/v) glycerol added; curves extrapolated to infinite dilution; mass estimated from the Porod volume
[3] = target: the molecule itself; assay: SEC; proper folding of the full-length ChxR Ala mutants was assessed by size exclusion chromatography; the sentence on homodimers names no method

DR2 site of chxR promoter
Kd [1]: 450 nM

B1: full-length ChxR (natural protein, Chlamydia trachomatis, UniProt A0A0H3MDW1 1-227, looked up)
chain: MAGPKHVLLVSEHWDLFFQTKELLNPEEYRCTIGQQYKQELSADLVVCEYSLLPREIRSPKSLEGSFVLVLLDFFDEETSVDLLDRGFWYLIRPITPRILKSAISLFLSQHSLHSVPESIRFGPNVFYVLKLTVETPEGSVHLTPSESGILKRLLINKGQLCLRKHLLEEIKNHAKAIVARNVDVHIASLRKKLGAYGSRIVTLRGVGYLFSDDGDKKFSQQDTKLS
notes: ChxR, atypical OmpR/PhoB subfamily response regulator of Chlamydia trachomatis, full length; The calculated MW of the dimer is ~56 kDa; also called wild-type ChxR; not shown: His-tag (24 residues), N-terminal, kept
stoichiometry N [2]: 2

B2: full-length ChxR with Ala substitution of Asn182 (natural protein)
chain: B1 chain with N182A
notes: ChxR of Chlamydia trachomatis, full-length protein with an Ala substitution; Made from the same plasmid as m1; also called Asn182 substitution; source: mutation introduced into the full-length ChxR plasmid (QuikChange II XL)
binding result [3]: binds

B3: ChxR^H186A (natural protein)
chain: B1 chain with H186A
notes: ChxR of Chlamydia trachomatis, full-length protein with an Ala substitution; Made from the same plasmid as m1; also called His186 substitution; source: mutation introduced into the full-length ChxR plasmid (QuikChange II XL)
binding result [3]: binds

B4: full-length ChxR with Ala substitution of Lys192 (natural protein)
chain: B1 chain with K192A
notes: ChxR of Chlamydia trachomatis, full-length protein with an Ala substitution; Made from the same plasmid as m1; also called Lys192 substitution; source: mutation introduced into the full-length ChxR plasmid (QuikChange II XL)
binding result [3]: binds

B5: full-length ChxR with Ala substitution of Arg205 (natural protein)
chain: B1 chain with R205A
notes: ChxR of Chlamydia trachomatis, full-length protein with an Ala substitution; Made from the same plasmid as m1; also called Arg205 substitution; source: mutation introduced into the full-length ChxR plasmid (QuikChange II XL)
binding result [3]: binds

Source: article PMC3960148, “Atypical Response Regulator ChxR from Chlamydia trachomatis Is Structurally Poised for DNA Binding” (PLoS ONE, 2014)
